According to patent publication US20140087995A1 (published 2014):
Read-outs that look alike come from different tables or passages of the source. Numbered stars: 1 amine (or outer) side, 2 acyl side, 3 side chain; on linkers, the order of the positions; unused ones are H or OH. Bridge positions count the residues as written; N and C are the ends. Side chains are listed from the residue outwards. Ends that are not written are not given here. * marks the point of attachment. C20 diacid = O=C(O)CCCCCCCCCCCCCCCCCCC(=O)*; γGlu = O=C(O)[C@H](CCC(=O)[*:2])N[*:1]; AEEA = NCCOCCOCC(=O)O

T1: human amylin receptor (amylin 3(a) receptor: human calcitonin receptor plus RAMP-3) (human, UniProt P30988 25-474; O60896 24-148)
T1 sequence (looked up) 1: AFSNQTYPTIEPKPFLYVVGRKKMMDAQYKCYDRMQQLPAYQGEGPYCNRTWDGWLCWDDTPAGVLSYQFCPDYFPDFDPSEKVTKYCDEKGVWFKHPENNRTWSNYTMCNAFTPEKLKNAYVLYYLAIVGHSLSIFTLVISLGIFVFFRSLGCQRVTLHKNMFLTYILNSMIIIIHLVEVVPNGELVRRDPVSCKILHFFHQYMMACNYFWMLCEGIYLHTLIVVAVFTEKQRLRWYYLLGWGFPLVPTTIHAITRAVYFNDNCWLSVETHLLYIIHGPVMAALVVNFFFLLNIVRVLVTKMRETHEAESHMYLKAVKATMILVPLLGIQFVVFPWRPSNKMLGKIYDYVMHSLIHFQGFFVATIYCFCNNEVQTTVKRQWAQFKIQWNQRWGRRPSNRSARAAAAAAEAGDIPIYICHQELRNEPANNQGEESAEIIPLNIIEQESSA
T1 sequence (looked up) 2: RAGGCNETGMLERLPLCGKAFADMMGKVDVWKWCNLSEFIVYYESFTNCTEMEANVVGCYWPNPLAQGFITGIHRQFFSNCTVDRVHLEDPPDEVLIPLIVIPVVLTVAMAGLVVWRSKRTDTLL

T2: human calcitonin receptor (human, UniProt P30988 25-474)
T2 sequence (looked up): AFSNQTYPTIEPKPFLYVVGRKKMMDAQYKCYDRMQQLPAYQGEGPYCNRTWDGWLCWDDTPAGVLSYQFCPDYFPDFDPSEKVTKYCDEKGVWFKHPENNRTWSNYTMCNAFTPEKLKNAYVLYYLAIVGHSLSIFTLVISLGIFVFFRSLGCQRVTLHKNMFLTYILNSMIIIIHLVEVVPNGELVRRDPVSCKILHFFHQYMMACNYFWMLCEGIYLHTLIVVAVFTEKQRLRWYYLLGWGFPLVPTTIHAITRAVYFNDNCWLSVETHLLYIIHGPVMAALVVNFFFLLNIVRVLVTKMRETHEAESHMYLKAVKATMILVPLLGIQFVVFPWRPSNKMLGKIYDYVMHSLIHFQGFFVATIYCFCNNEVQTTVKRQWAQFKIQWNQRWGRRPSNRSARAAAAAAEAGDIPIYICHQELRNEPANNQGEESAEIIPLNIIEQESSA


Tests used:
[1] = molecular target: T1, human amylin receptor (amylin 3(a) …); assay: cell-based or functional assay
[2] = molecular target: T2, human calcitonin receptor; assay: cell-based or functional assay
[3] = molecular target: T1, human amylin receptor (amylin 3(a) …); assay: cell-based or functional assay; remark: listed apart in the source
[4] = molecular target: T2, human calcitonin receptor; assay: cell-based or functional assay; remark: listed apart in the source
[5] = molecular target: T1, human amylin receptor (amylin 3(a) …); assay: SPA competition, displacement of 125I-rat amylin from membranes of BHK cells with human calcitonin receptor + RAMP-3 (Assay V)
Procedure: (§1) The binding assay was performed using scintillation proximity assay (SPA) beads (RPNQ0001) from PerkinElmer and cell membranes from the Amylin 3(a)/CRE-luc cells (as described in Assay (II)) were used. Membranes were prepared in the following way; the cells were rinsed with PBS and incubated with Versene for approximately 5 min before harvesting. The cells were flushed with PBS and the cell-suspension was centrifuged for 5 min at 1000 rpm. Cells were homogenized (ultrathurrax) in a buffer containing 20 mM Na-HEPES and 10 mM EDTA (pH 7.4) and centrifuged at 20.000 rpm for 15 min. The resulting pellet was resuspended, homogenized and centrifuged (20.000 rpm, 15 min) in a buffer containing 20 mM Na-HEPES and 0.1 mM EDTA (pH 7.4, buffer 2). The resulting pellet was resuspended in buffer 2 and protein concentration was measured (BCA protein Assay, Pierce). The homogenate was kept cold during the whole procedure. The membranes were kept at −80° C. until use. The assay was performed in a 384 well Optiplate (PerkinElmer) in a total volume of 40 ul. Membranes were mixed with SPA beads. Final concentration of membranes 35 ng/μL final and SPA beads was 0.05 mg/well. Test-compounds were dissolved in DMSO and further diluted in assay buffer (50 mM Hepes, pH 7.4, 1 mM CaCl2, 5 mM MgCl₂, 0.1% OA and 0.02% Tween20). […] The final mixture was incubated with shaking at 400 rpm for 120 min at 25° C. prior to centrifugation (1500 rpm, 10 min). Samples were analyzed on TopCounter™ (Packard). The IC₅₀ was calculated using (one site binding competition analysis) GraphPad Prism5 as a measure of receptor affinity.

[6] = molecular target: T1, human amylin receptor (amylin 3(a) …); assay: as above; remark: listed apart in the source
Procedure: as §1

| Binder | hAmylin-R funct. EC50 (pM) [1] | hCTR funct. EC50 (pM) [2] | hAmylin-R funct. EC50 (pM) [3] | hCTR funct. EC50 (pM) [4] | IC50 [5] | IC50 [6] | Ratio hCT/hAmylin funct. [1] | Ratio hCT/hAmylin funct. [3] |
| --- | --- | --- | --- | --- | --- | --- | --- | --- |
| K([γGlu-γGlu-C20 diacid])CNTATCATQRLAEFLRHSSPNFGAIPSSTNVGPHTY-NH2 (disulfide 2-7 (inferred)) | 172 pM | 2830 pM | 172 pM | 2830 pM | 0.377 nM | 0.377 nM | – | – |
| K([γGlu-C20 diacid])RCNTATCATQRLANFLRHSSPNFGAIPSSTNVGSHTY-NH2 (disulfide 3-8; N-terminus assumed; SMILES CC[C@H](C)[C@H](NC(=O)[C@H](C)NC(=O)CNC(=O)[C@H](Cc1ccccc1)NC(=O)[C@H](CC(N)=O)NC(=O)[C@@H]1CCCN1C(=O)[C@H](CO)NC(=O)[C@H](CO)NC(=O)[C@H](Cc1c[nH]cn1)NC(=O)[C@H](CCCNC(=N)N)NC(=O)[C@H](CC(C)C)NC(=O)[C@H](Cc1ccccc1)NC(=O)[C@H](CC(N)=O)NC(=O)[C@H](C)NC(=O)[C@H](CC(C)C)NC(=O)[C@H](CCCNC(=N)N)NC(=O)[C@H](CCC(N)=O)NC(=O)[C@@H](NC(=O)[C@H](C)NC(=O)[C@@H]1CSSC[C@H](NC(=O)[C@H](CCCNC(=N)N)NC(=O)[C@@H](N)CCCCNC(=O)CC[C@H](NC(=O)CCCCCCCCCCCCCCCCCCC(=O)O)C(=O)O)C(=O)N[C@@H](CC(N)=O)C(=O)N[C@@H]([C@@H](C)O)C(=O)N[C@@H](C)C(=O)N[C@@H]([C@@H](C)O)C(=O)N1)[C@@H](C)O)C(=O)N1CCC[C@H]1C(=O)N[C@@H](CO)C(=O)N[C@@H](CO)C(=O)N[C@H](C(=O)N[C@@H](CC(N)=O)C(=O)N[C@H](C(=O)NCC(=O)N[C@@H](CO)C(=O)N[C@@H](Cc1c[nH]cn1)C(=O)N[C@H](C(=O)N[C@@H](Cc1ccc(O)cc1)C(N)=O)[C@@H](C)O)C(C)C)[C@@H](C)O, N-terminal extension by Lys at position -1; also called compound 44) | 198 pM | 4750 pM | 198 pM | 4750 pM | 0.275 nM | 0.275 nM | 24 | 24 |
| K([AEEA-γGlu-C20 diacid])RCNTATCATQRLANFLRHSSPNFGAIPSSTNVGSHTY-NH2 (disulfide 3-8; N-terminus assumed; SMILES CC[C@H](C)[C@H](NC(=O)[C@H](C)NC(=O)CNC(=O)[C@H](Cc1ccccc1)NC(=O)[C@H](CC(N)=O)NC(=O)[C@@H]1CCCN1C(=O)[C@H](CO)NC(=O)[C@H](CO)NC(=O)[C@H](Cc1c[nH]cn1)NC(=O)[C@H](CCCNC(=N)N)NC(=O)[C@H](CC(C)C)NC(=O)[C@H](Cc1ccccc1)NC(=O)[C@H](CC(N)=O)NC(=O)[C@H](C)NC(=O)[C@H](CC(C)C)NC(=O)[C@H](CCCNC(=N)N)NC(=O)[C@H](CCC(N)=O)NC(=O)[C@@H](NC(=O)[C@H](C)NC(=O)[C@@H]1CSSC[C@H](NC(=O)[C@H](CCCNC(=N)N)NC(=O)[C@@H](N)CCCCNC(=O)COCCOCCNC(=O)CC[C@H](NC(=O)CCCCCCCCCCCCCCCCCCC(=O)O)C(=O)O)C(=O)N[C@@H](CC(N)=O)C(=O)N[C@@H]([C@@H](C)O)C(=O)N[C@@H](C)C(=O)N[C@@H]([C@@H](C)O)C(=O)N1)[C@@H](C)O)C(=O)N1CCC[C@H]1C(=O)N[C@@H](CO)C(=O)N[C@@H](CO)C(=O)N[C@H](C(=O)N[C@@H](CC(N)=O)C(=O)N[C@H](C(=O)NCC(=O)N[C@@H](CO)C(=O)N[C@@H](Cc1c[nH]cn1)C(=O)N[C@H](C(=O)N[C@@H](Cc1ccc(O)cc1)C(N)=O)[C@@H](C)O)C(C)C)[C@@H](C)O, N-terminal extension by Lys at position -1; also called compound 45) | 594 pM | 10100 pM | 594 pM | 10100 pM | 0.552 nM | 0.552 nM | 17 | 17 |
